Source: patent US6417159B1 (Queen's University at Kingston, priority 1996, dated 2002)

Tests used:
[1] = target: T1, TrkA (Rattus norvegicus, UniProt P35739); test: [125I]NGF affinity cross-linking to TrkA; format: binding; details: PC12 cells, 50 μM R3
T1 construct: endogenous in cells; host or cells: PC12
Procedure: (§1) FIG. 7A illustrates the influence of peptide R3 on affinity cross-linking of TrkA and p75^NTR. Intact PC12 cells were treated with 50 μM R3 for 24 h (preinc.) in medium, harvested with CMF medium, and suspended at a concentration of 10^6·ml^−1 (or 10^7·m^−1 for immunoprecipitation studies) in HKR buffer. Cells were then incubated in the presence or absence of R3 (coinc.) for 15 min at 37° C. and cooled in ice. Cross-linking was performed by incubating cells with 1 nM [^125I]-NGF for 2 h at 4° C., adding EDC ([…]) and NHS (2 mM) or BS^3 (0.4 mM) as indicated, and incubating for 30 min at 25° C. Cells were washed three times in HKR buffer and the pellet dissolved in reducing SDS sample buffer or in lysis buffer (1% NP-40, 10% glycerol, 1 mM PMSF, 10 μg-ml^−1 aprotinin, 1 μg/ml leupeptin, […] o-vanadate in TBS) for immunoprecipitation (lanes 4 and 8). For immunoprecipitation, the cellular debris was removed by centrifugation and the supernatant incubated with 1 μg anti-p75^NTR monoclonal Ab 192 (Cedarlane Laboratories Ltd.) or 1 μg anti-TrkA polyclonal Ab (a gift from Dr. W. Mobley, University of California, San Francisco) for 4 h at 4° C. Immunoprecipates were isolated by incubating with 50 μl of a 50% solution of protein A-SEPHAROSE™ (anti-Trk) or goat anti-mouse agarose (Ab 192) for 2 h at 4° C. Precipitates were washed 3 times in lysis buffer and dissolved in sample buffer. […]

[2] = target: T2, p75^NTR (Rattus norvegicus, UniProt P07174); test: [125I]NGF affinity cross-linking to p75NTR; format: binding; details: PC12 cells, 50 μM R3
T2 construct: endogenous in cells; host or cells: PC12
T2 sequence (P07174 30-425): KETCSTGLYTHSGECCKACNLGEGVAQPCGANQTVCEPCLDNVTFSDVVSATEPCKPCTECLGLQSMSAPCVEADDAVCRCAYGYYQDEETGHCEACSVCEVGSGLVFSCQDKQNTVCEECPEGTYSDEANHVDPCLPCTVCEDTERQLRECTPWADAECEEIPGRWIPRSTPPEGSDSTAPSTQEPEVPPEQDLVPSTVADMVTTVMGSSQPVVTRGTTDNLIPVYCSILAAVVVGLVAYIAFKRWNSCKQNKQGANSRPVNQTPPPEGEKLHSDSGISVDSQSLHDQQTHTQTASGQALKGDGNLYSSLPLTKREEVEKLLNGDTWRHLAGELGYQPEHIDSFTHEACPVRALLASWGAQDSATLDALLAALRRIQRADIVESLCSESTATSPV
Procedure: as §1

[3] = test system: ciliary neurons; test: CNTF survival effect on ciliary neurons; format: cell-based

T1 sequence (P35739 33-799): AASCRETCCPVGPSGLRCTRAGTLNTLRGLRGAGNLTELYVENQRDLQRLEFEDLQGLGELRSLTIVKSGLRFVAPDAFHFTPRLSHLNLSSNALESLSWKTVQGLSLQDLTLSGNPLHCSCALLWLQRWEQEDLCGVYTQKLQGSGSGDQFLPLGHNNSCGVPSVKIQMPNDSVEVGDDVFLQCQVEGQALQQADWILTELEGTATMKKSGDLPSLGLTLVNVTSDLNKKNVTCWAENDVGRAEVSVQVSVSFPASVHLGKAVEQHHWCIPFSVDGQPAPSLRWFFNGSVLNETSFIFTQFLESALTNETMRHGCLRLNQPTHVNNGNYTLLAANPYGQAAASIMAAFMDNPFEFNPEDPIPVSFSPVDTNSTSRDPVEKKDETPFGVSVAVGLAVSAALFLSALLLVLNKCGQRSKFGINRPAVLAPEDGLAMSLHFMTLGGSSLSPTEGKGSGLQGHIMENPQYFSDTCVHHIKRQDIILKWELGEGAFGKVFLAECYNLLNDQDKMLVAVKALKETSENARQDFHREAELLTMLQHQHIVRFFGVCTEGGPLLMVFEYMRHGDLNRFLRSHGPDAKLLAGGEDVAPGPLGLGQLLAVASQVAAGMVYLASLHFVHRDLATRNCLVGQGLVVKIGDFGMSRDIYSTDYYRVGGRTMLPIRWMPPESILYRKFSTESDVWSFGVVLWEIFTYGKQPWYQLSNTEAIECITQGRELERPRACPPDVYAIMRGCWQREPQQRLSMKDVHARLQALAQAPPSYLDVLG

## LDALLAALRRIQR [R3]
[1]
  Affinity cross-linking of [125I]NGF to TrkA monomers or homodimers, in words: not affected
[2]
  Affinity cross-linking of [125I]NGF to p75NTR monomers or homodimers, in words: not affected
[3]
  Influence on survival effect of CNTF on ciliary neurons, in words: no influence
